Measurements taken from paper PMC7705443 (Cell Research, 2020).

Key:
[1] = biological target: SARS-CoV-2 RBD (residues 319-541), C-terminal his-tag (SARS-CoV-2, Wuhan-Hu-1 (MN908947.3), UniProt P0DTC2); assay: SPR; conditions: both partners purified
[2] = biological target: SARS-CoV RBD (residues 306-527), C-terminal his-tag (SARS-CoV (GenBank NC_004718.3, Tor2), UniProt P59594); assay: SPR; conditions: both partners purified

B1: P17 antibody (full-length IgG1) (antibody, V domains shown)
VH: QQLVESGGGVVQPGRSLRLSCAASGFTFSSYAMHWVRQAPGKGLEWVAVISYDGSNKYYADSVKGRFTISRDNSKNTLYLQMNSLRAEDTAVYYCARHATLMNNKDIWGQGTLVTVSS
VL: not shown
notes: also called NAb P17
Kd [1]: 0.096 nM
binding result [2]: no binding
